System: sites of DNA damage in U2OS cells
Test: Recruitment of YFP-ALC1 to DNA breaks upon laser damage
Assay type: cell-based, Homo sapiens
Conditions: YFP-ALC1 R860W background, 405 nm laser damage
Protocol: U2OS Flp-In T-REx cells were a kind gift from Durocher lab and maintained in DMEM medium (GIBCO/Thermo Fisher) supplemented with 10% FBS and Pen/Strep with 15.5 μg/ml zeocin (Invitrogen) and 4 μg/ml blasticidin. CRISPR inactivation of ALC1 was carried out in Flp-In T-REx U2OS cells by transiently expressing Cas9 and gRNA targeting Exon3 of ALC1 F-oligo: CACCGCAG GAAGATTAAATGATGAA R-oligo: […] with px459 (addgene) ([Ran et al., 2013]). Single cell clones were grown by limiting dilution and then screened for ALC1 expression by western blot. […]
Cells were seeded on 8 well Lab-Tek chamber slides (Thermo Fisher Scientific). […] In order to monitor the association kineticsof YFP-tagged ALC1 at sites of laser micro-irradiation, the time evolution of YFP fluorescence in the damaged region of interest was recorded upon excitation with a 488 nm laser. Recruitment of YFP to bleached ROIs was analyzed in FIJI ([Schindelin et al., 2012]) and data were processed in R. In brief, nuclear masks were segmented by local thresholding. […] In order to quantify recruitment, the mean YFP fluorescence intensities at a given time point t (It) were normalized to the mean initial fluorescence intensities I0 of the same region of interest. Normalized intensities were additionally multiplied with BGI0/BGIt to correct for photobleaching, where BGI represents the background fluorescence intensity. […]

B1: R611A/S612A: YFP-ALC1 with R611A/S612A linker mutation and R860W, expressed in U2OS cells (protein, UniProt Q86WJ1 1-897, looked up, variant R611A S612A R860W)
Chromodomain-helicase-DNA-bind …: MERAGATSRGGQAPGFLLRLHTEGRAEAARVQEQDLRQWGLTGIHLRSYQLEGVNWLAQRFHCQNGCILGDEMGLGKTCQTIALFIYLAGRLNDEGPFLILCPLSVLSNWKEEMQRFAPGLSCVTYAGDKEERACLQQDLKQESRFHVLLTTYEICLKDASFLKSFPWSVLVVDEAHRLKNQSSLLHKTLSEFSVVFSLLLTGTPIQNSLQELYSLLSFVEPDLFSKEEVGDFIQRYQDIEKESESASELHKLLQPFLLRRVKAEVATELPKKTEVVIYHGMSALQKKYYKAILMKDLDAFENETAKKVKLQNILSQLRKCVDHPYLFDGVEPEPFEVGDHLTEASGKLHLLDKLLAFLYSGGHRVLLFSQMTQMLDILQDYMDYRGYSYERVDGSVRGEERHLAIKNFGQQPIFVFLLSTRAGGVGMNLTAADTVIFVDSDFNPQNDLQAAARAHRIGQNKSVKVIRLIGRDTVEEIVYRKAASKLQLTNMIIEGGHFTLGAQKPAADADLQLSEILKFGLDKLLASEGSTMDEIDLESILGETKDGQWVSDALPAAEGGSRDQEEGKNHMYLFEGKDYSKEPSKEDRKSFEQLVNLQKTLLEKASQEGAALRNKGSVLIPGLVEGSTKRKRVLSPEELEDRQKKRQEAAAKRRRLIEEKKRQKEEAEHKKKMAWWESNNYQSFCLPSEESEPEDLENGEESSAELDYQDPDATSLKYVSGDVTHPQAGAEDALIVHCVDDSGHWGRGGLFTALEKRSAEPRKIYELAGKMKDLSLGGVLLFPVDDKESRNKGQDLLALIVAQHRDRSNVLSGIKMAALEEGLKKIFLAAKKKKASVHLPRIGHATKGFNWYGTERLIWKHLAARGIPTYIYYFPRSKSAVLHSQSSSSSSRQLVP
modifications: YFP fusion
notes: YFP-ALC1 with R611A/S612A linker mutation and R860W, expressed in U2OS cells
With B1 the “overall extent of ALC1 recruitment to sites of DNA damage” value (n ≥ 131 traces from 3 independent experiments) was “notably compromised the overall extent of ALC1 recruitment” and the “recruitment kinetics at sites of DNA damage” value (single-exponential half times, n ≥ 131 traces) was “only modestly delayed recruitment kinetics”.
